Where two headings read alike, the source gives them in different places.
T1: mouse CCR6 (mouse, UniProt O54689 1-367)
T1 construct: whole, on cells; gene derived from a cDNA library; also called CCR6 mouse
T1 sequence (looked up): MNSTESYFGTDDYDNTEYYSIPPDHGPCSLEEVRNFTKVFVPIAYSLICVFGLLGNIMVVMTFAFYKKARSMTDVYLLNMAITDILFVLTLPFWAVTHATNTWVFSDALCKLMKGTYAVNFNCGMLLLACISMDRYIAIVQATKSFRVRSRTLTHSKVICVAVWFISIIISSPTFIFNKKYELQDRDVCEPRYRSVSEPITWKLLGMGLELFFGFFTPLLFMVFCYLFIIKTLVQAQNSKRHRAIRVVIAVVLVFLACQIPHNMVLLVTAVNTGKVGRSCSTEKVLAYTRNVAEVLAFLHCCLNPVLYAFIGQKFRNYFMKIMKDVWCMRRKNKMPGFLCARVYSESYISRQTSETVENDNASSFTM

T2: human chemokine receptor CCR6 (human, UniProt P51684 1-374)
T2 construct: whole, on cells; gene was synthesized (codon-optimized); a C-terminal tag may be present on the expressed protein; also called CCR6 human; human CCR6
T2 sequence (looked up): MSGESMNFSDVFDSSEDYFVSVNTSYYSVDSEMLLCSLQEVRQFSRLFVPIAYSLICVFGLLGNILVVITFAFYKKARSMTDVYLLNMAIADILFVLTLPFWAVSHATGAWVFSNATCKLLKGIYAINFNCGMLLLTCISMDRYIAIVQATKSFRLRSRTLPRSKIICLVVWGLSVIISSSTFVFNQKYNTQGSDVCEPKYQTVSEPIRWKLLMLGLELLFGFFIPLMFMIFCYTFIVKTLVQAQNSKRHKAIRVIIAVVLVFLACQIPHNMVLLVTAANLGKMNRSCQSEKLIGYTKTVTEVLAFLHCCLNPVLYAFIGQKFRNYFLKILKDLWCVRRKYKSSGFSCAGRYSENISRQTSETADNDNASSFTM

T3: human CXCR2 (human, UniProt P25025 1-360)
T3 construct: whole, on cells
T3 sequence (looked up): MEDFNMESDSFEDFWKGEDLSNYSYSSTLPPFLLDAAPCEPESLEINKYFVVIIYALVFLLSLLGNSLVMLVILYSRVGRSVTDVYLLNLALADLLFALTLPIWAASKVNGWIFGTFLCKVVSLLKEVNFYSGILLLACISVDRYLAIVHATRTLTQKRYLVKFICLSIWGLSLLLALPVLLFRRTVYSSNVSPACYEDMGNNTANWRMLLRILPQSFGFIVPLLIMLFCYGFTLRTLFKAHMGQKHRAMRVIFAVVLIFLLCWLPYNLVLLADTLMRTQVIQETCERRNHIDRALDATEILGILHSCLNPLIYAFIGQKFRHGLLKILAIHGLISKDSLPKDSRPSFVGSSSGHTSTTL

T4: mouse CCR7 (mouse, UniProt P47774 25-378)
T4 construct: whole, on cells; also called CCR7ms
T4 sequence (looked up): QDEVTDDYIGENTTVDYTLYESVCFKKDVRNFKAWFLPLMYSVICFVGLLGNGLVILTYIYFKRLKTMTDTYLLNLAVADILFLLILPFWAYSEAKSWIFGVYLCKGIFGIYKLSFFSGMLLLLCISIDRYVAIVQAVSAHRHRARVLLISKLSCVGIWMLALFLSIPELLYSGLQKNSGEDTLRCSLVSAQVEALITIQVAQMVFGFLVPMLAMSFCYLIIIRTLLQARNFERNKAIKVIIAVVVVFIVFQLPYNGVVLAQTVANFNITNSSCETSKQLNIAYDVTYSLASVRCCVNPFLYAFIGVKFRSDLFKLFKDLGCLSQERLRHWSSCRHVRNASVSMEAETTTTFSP


Assays:
[1] = molecular target: T1, mouse CCR6; experiment: flow cytometry on CHO cells expressing mouse CCR6
Protocol: Cells have been incubated with fully human anti-human CCR6 antibodies in IgG1 format. After washing out residual unbound antibodies the cells were incubated with commercial anti-human Fc antibodies conjugated to the fluorescent dye phycoerythrin (IgG-PE). In more details, the cell staining procedure was: […] cell suspension in 10 μl FACS buffer (1×PBS, 2.0% FBS, 0.2% sodium azide) was mixed with 10 μl of 200 nM the corresponding anti-CCR6 MAB and incubated on ice for 30 min. Washing step—after the incubation 150 μl of FACS buffer was added to the cell sample, the samples were mixed gently by up-down pipetting the cell suspension. Then the samples were centrifuged at 1100 rpm for 5 minutes, and supernatants were removed. Washing step was repeated ones. Then 10 μl of anti-human PE-(Fab)2 form Jackson Immuno Research Lab. #709-116-098 diluted 40 times in FACS buffer were added to the cells and the cells were re-suspended by up-down pipetting. After 20 min. incubation on ice in dark the washing step was repeated twice. The washed cells were mixed with 100 μl of FIX buffer (0.5% Paraformaldehyde solution in PBS). Fixed samples were stored in dark on ice and analyzed by FACS on Guava PCA-96 flow cytometer.

[2] = molecular target: T2, human chemokine receptor CCR6; experiment: flow cytometry on cells expressing the target, IgG1 titration, anti-human Fc-PE
[3] = molecular target: T5, cynomolgus monkey CCR6 (cynomolgus monkey (Macaca Fascicularis)); experiment: as above
T5 construct: whole, on cells; gene derived from a total RNA library; also called CCR6 cyno; cyno CCR6

[4] = molecular target: T2, human chemokine receptor CCR6; experiment: flow cytometry on cells expressing the target, IgG1 titration (repeat of Table 2)
[5] = molecular target: T5, cynomolgus monkey CCR6; experiment: as above
[6] = molecular target: T3, human CXCR2; experiment: flow cytometry on GPCR-expressing cell panel
[7] = molecular target: T1, mouse CCR6; experiment: flow cytometry on CHO cells expressing mouse CCR6; remark: listed apart in the source
[8] = molecular target: T2, human chemokine receptor CCR6; experiment: flow cytometry on R1610 cells expressing human CCR6, IgG1 titration, anti-human Fc-PE
[9] = molecular target: T2, human chemokine receptor CCR6; experiment: cell-based or functional assay
[10] = molecular target: T2, human chemokine receptor CCR6; experiment: cell-based or functional assay; remark: listed apart in the source
[11] = molecular target: T6, human CXCR6 (human, UniProt O00574 1-342); experiment: flow cytometry on GPCR-expressing cell panel
T6 construct: whole, on cells

[12] = molecular target: T4, mouse CCR7; experiment: flow cytometry on GPCR-expressing cell panel
[13] = molecular target: T1, mouse CCR6; experiment: flow cytometry on cells expressing the target, IgG1 titration, anti-human Fc-PE
[14] = molecular target: T1, mouse CCR6; experiment: flow cytometry on cells expressing the target, IgG1 titration (repeat of Table 2)
[15] = molecular target: T2, human chemokine receptor CCR6; experiment: cell-based or functional assay; remark: listed apart in the source
[16] = molecular target: T2, human chemokine receptor CCR6; experiment: flow cytometry on cells expressing the target, antibody titration
[17] = molecular target: T5, cynomolgus monkey CCR6; experiment: as above

T6 sequence (O00574 whole entry): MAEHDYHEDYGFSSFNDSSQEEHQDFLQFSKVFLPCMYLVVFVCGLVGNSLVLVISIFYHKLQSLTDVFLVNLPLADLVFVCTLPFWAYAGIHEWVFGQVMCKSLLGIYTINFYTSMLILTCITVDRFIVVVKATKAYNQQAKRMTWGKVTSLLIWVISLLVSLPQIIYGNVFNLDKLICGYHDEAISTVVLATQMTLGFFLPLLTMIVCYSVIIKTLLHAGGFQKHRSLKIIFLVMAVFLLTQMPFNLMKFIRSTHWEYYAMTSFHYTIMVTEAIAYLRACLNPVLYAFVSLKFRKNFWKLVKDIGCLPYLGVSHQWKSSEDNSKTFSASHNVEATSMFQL

Binder	binding result [1]	EC50 [2] [nM]	EC50 [3] [nM]	EC50 [4] [nM]	EC50 [5] [nM]	binding result [6]	binding result [7]	EC50 [8] [nM]	IC50, nM CCL20-Ca-Flux [9] [nM]	Ca-Flux IC50, nM CCR6/CCL20 [10] [nM]	binding result [11]	binding result [12]	EC50 [13] [nM]	EC50 [14] [nM]	IC50, nM (Ca-Flux) CCR6/CCL20 [15] [nM]	EC50 [16] [nM]	EC50 [17] [nM]
MSM-R601 IgG1 (antibody, V domains shown, Fully human IgG1 made in transiently transfected CHO cells; HC AA / LC AA entries are full chains) VH: EVQLLESGGGLVQPGGSLRLSCAASGFTFSSYAMSWVRQAPGKGLEWVSAISGSGGSTYYADSVKGRFTISRDNSKNTLYLQMNSLRAEDTAMYYCARHGYSATRQGLDYWGQGTLVTVSS VL: not shown	no binding	25	14.5	25	14.5												
MSM-R614 IgG1 (antibody, V domains shown, Fully human IgG1) VH: EVQLLESGGGLVQPGGSLRLSCPASGFTFTRSAMSWVRQAPGKGLEWVSYINSSGGGTYYADSVKGRFTISRDNSKNTLYLQMNSLRAEDTAVYYCARARFIWGFDYWGQGTLVTVSS VL: EIVLTQSPGTLSLSPGERATLSCRASQSVSSSYLAWYQQKPGQAPRLLIYGASSRATGIPDRFSGSGSGTDFTLTISRLEPEDFAVYYCQQWYWAPVTFGQGTKVEIKR			3	2.5	3	binds	no binding	2.5									
MSM-R605 IgG1 (antibody, Fully human IgG1) heavy: not shown light: EIVLTQSPGTLSLSPGERATLSCRASQSVSSSYLAWYQQKPGQAPRLLIYGASSRATGIPDRFSGSGSGTDFTLTISRLEPEDFAVYYCQQSRATPLTFGQGTKVEIKRTVAAPSVFIFPPSDEQLKSGTASVVCLLNNFYPREAKVQWKVDNALQSGNSQESVTEQDSKDSTYSLSSTLTLSKADYEKHKVYACEVTHQGLSSPVTKSFNRGEC		1	1.8	1	1.8				1.5	1.5	binds	binds	1.6	1.6			
MSM-R627/33 (antibody, V domains shown, also called MSM 627 HC/JSJ R633LC) VH: EVQLLESGGGLVQPGGSLRLSCAASGFTISSYMAWVRQAPGKGLEWVSSISPSSGSTYYADSVKGRFTISRDNSKNTLYLQMNSLRAEDTAVYYCARSMWSKQMHRYGLDYWGQGTLVTVSS VL: EIVLTQSPGTLSLSPGERATLSCRASQSVSSSYLAWYQQKPGQAPRLLIYGASSRATDIPDRFSGSGSGTDFTLTISRLEPEDFAVYYCQQSYSDPITFGQGTKVEIK															> 500	2.6	2.9

Source: patent publication US20150337037A1 (MSM PROTEIN TECHNOLOGIES, published 2015)
